T1: human BCMA (human, UniProt Q02223 1-184)
T1 construct: whole, on cells; also called hBCMA; TNFRSF17
T1 sequence (looked up): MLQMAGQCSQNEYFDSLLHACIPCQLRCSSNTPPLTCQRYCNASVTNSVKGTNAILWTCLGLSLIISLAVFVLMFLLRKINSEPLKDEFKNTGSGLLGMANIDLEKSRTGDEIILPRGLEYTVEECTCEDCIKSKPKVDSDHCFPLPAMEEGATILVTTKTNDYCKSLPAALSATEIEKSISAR


How the values were obtained:
human BCMA [1] = biological target: T1, human BCMA; test: FACS on NCI-H929 cells
cynomolgus monkey BCMA = biological target: T2, cynomolgus monkey BCMA (cynomolgus monkey, UniProt A0A2K5UD97 1-183); test: FACS on HEK293T/cyno BCMA cells
T2 construct: whole, on cells; also called cyno BCMA
T2 sequence (A0A2K5UD97 entry or part of it): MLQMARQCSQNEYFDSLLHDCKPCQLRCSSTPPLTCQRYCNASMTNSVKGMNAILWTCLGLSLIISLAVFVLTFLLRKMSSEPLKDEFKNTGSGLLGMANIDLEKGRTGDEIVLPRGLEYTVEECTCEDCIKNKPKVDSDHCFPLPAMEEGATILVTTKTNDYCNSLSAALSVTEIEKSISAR

human BCMA [2] = biological target: T1, human BCMA; test: FACS on HEK293T/hBCMA cells, Experiment 2
[3] = biological target: T3, human 4-1BB (tumor necrosis factor receptor superfamily member 9) (human, UniProt Q07011 24-255); test: flow cytometry (FACS) on CHO-K1/hu 4-1BB cells
T3 construct: whole, on cells; also called hu 4-1BB; CD137
T3 sequence (Q07011 24-255): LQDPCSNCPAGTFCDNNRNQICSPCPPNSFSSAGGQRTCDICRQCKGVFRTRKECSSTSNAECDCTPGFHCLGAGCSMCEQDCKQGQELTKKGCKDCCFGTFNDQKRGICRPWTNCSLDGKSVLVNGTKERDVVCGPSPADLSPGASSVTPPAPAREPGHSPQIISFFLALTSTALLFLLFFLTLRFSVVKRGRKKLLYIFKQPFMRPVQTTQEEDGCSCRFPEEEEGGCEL

EC50 (human BCMA [1]) [nM]	Maximum MFI (human BCMA [1])	Maximum MFI (cynomolgus monkey BCMA)	EC50 (human BCMA [2]) [nM]	Maximum MFI (human BCMA [2])	Binder	EC50 [3] [nM]	Maximum MFI [3] [MFI]
4.27	4360	15000	0.767	15500	PR002892 (bispecific antibody, human IgG1, lambda, L234A L235A) light: QAVVTQEPSLTVSPGGTVTLTCRSSTGAVTTSNYANWVQQKPGQAPRGLIGGTNKRAPWTPARFSGSLLGDKAALTLLGAQPEDEAEYFCALWYSNLWVFGGGTKLTVLGQPKAAPSVTLFPPSSEELQANKATLVCLISDFYPGAVTVAWKADSSPVKAGVETTTPSKQSNNKYAASSYLSLTPEQWKSHRSYSCQVTHEGSTVEKTVAPTECS heavy: not shown EVQLVETGGGLIQPGGSLRLSCAASGFTVSDNYMTWVRQAPGKGLEWVSVIFSGGNTYYADSVKGRFTISRDNAKNTLYLQMNSLRAEDTALYYCARRNYDDTRGTDVFDIWGQGTMVTVSSGGGGSEVQLVETGGGLIQPGGSLRLSCAASGFTVSDNYMTWVRQAPGKGLEWVSVIFSGGNTYYADSVKGRFTISRDNAKNTLYLQMNSLRAEDTALYYCARRNYDDTRGTDVFDIWGQGTMVTVSSASEPKSSDKTHTCPPCPAPEAAGGPSVFLFPPKPKDTLMISRTPEVTCVVVDVSHEDPEVKFNWYVDGVEVHNAKTKPREEQYNSTYRVVSVLTVLHQDWLNGKEYKCKVSNKALPAPIEKTISKAKGQPREPQVCTLPPSREEMTKNQVSLSCAVKGFYPSDIAVEWESNGQPENNYKTTPPVLDSDGSFFLVSKLTVDKSRWQQGNVFSCSVMHEALHNHYTQKSLSLSPGK		
1.94	3730	8190	0.791	12600	PR002898 (bispecific antibody, human IgG1, lambda, L234A L235A) light: QAVVTQEPSLTVSPGGTVTLTCRSSTGAVTTSNYANWVQQKPGQAPRGLIGGTNKRAPWTPARFSGSLLGDKAALTLLGAQPEDEAEYFCALWYSNLWVFGGGTKLTVLGQPKAAPSVTLFPPSSEELQANKATLVCLISDFYPGAVTVAWKADSSPVKAGVETTTPSKQSNNKYAASSYLSLTPEQWKSHRSYSCQVTHEGSTVEKTVAPTECS heavy: not shown EVQLVETGGGLIQPGGSLRLSCAASGFTVSDNYMTWVRQAPGKGLEWVSVIFSGGNTYYADSVKGRFTISRDNAKNTLYLQMNSLRAEDTALYYCARRNYDDTRGTDVFDIWGQGTMVTVSSGSEVQLVETGGGLIQPGGSLRLSCAASGFTVSDNYMTWVRQAPGKGLEWVSVIFSGGNTYYADSVKGRFTISRDNAKNTLYLQMNSLRAEDTALYYCARRNYDDTRGTDVFDIWGQGTMVTVSSASEPKSSDKTHTCPPCPAPEAAGGPSVFLFPPKPKDTLMISRTPEVTCVVVDVSHEDPEVKFNWYVDGVEVHNAKTKPREEQYNSTYRVVSVLTVLHQDWLNGKEYKCKVSNKALPAPIEKTISKAKGQPREPQVCTLPPSREEMTKNQVSLSCAVKGFYPSDIAVEWESNGQPENNYKTTPPVLDSDGSFFLVSKLTVDKSRWQQGNVFSCSVMHEALHNHYTQKSLSLSPGK		
2.32	4180	11000	0.654	14700	PR002901 (bispecific antibody, human IgG1, lambda, L234A L235A) light: QAVVTQEPSLTVSPGGTVTLTCRSSTGAVTTSNYANWVQQKPGQAPRGLIGGTNKRAPWTPARFSGSLLGDKAALTLLGAQPEDEAEYFCALWYSNLWVFGGGTKLTVLGQPKAAPSVTLFPPSSEELQANKATLVCLISDFYPGAVTVAWKADSSPVKAGVETTTPSKQSNNKYAASSYLSLTPEQWKSHRSYSCQVTHEGSTVEKTVAPTECS heavy: not shown EVQLVETGGGLIQPGGSLRLSCAASGFTVSDNYMTWVRQAPGKGLEWVSVIFSGGNTYYADSVKGRFTISRDNAKNTLYLQMNSLRAEDTALYYCARRNYDDTRGTDVFDIWGQGTMVTVSSGSGSEVQLVETGGGLIQPGGSLRLSCAASGFTVSDNYMTWVRQAPGKGLEWVSVIFSGGNTYYADSVKGRFTISRDNAKNTLYLQMNSLRAEDTALYYCARRNYDDTRGTDVFDIWGQGTMVTVSSASEPKSSDKTHTCPPCPAPEAAGGPSVFLFPPKPKDTLMISRTPEVTCVVVDVSHEDPEVKFNWYVDGVEVHNAKTKPREEQYNSTYRVVSVLTVLHQDWLNGKEYKCKVSNKALPAPIEKTISKAKGQPREPQVCTLPPSREEMTKNQVSLSCAVKGFYPSDIAVEWESNGQPENNYKTTPPVLDSDGSFFLVSKLTVDKSRWQQGNVFSCSVMHEALHNHYTQKSLSLSPGK		
4.3	4210	30600		23900	PR002959 (bispecific antibody, human IgG1, lambda, L234A L235A) light: QAVVTQEPSLTVSPGGTVTLTCRSSTGAVTTSNYANWVQQKPGQAPRGLIGGTNKRAPWTPARFSGSLLGDKAALTLLGAQPEDEAEYFCALWYSNLWVFGGGTKLTVLGQPKAAPSVTLFPPSSEELQANKATLVCLISDFYPGAVTVAWKADSSPVKAGVETTTPSKQSNNKYAASSYLSLTPEQWKSHRSYSCQVTHEGSTVEKTVAPTECS heavy: not shown EVQLVETGGGLIQPGGSLRLSCAASGFTVSDNYMTWVRQAPGKGLEWVSVIFSGGNTYYADSVKGRFTISRDNAKNTLYLQMNSLRAEDTALYYCARRNYDDTRGTDVFDIWGQGTMVTVSSGSGSEVQLVETGGGLIQPGGSLRLSCAASGFTVSDNYMTWVRQAPGKGLEWVSVIFSGGNTYYADSVKGRFTISRDNAKNTLYLQMNSLRAEDTALYYCARRNYDDTRGTDVFDIWGQGTMVTVSSASEPKSSDKTHTCPPCPAPEAAGGPSVFLFPPKPKDTLMISRTPEVTCVVVDVSHEDPEVKFNWYVDGVEVHNAKTKPREEQYNSTYRVVSVLTVLHQDWLNGKEYKCKVSNKALPAPIEKTISKAKGQPREPQVCTLPPSREEMTKNQVSLSCAVKGFYPSDIAVEWESNGQPENNYKTTPPVLDSDGSFFLVSKLTVDKSRWQQGNVFSCSVMHEALHNHYTQKSLSLSPGK		
4.11	4190	26600		22100	PR002950 (bispecific antibody, human IgG1, lambda, L234A L235A) light: QAVVTQEPSLTVSPGGTVTLTCRSSTGAVTTSNYANWVQQKPGQAPRGLIGGTNKRAPWTPARFSGSLLGDKAALTLLGAQPEDEAEYFCALWYSNLWVFGGGTKLTVLGQPKAAPSVTLFPPSSEELQANKATLVCLISDFYPGAVTVAWKADSSPVKAGVETTTPSKQSNNKYAASSYLSLTPEQWKSHRSYSCQVTHEGSTVEKTVAPTECS heavy: not shown EVQLVETGGGLIQPGGSLRLSCAASGFTVSDNYMTWVRQAPGKGLEWVSVIFSGGNTYYADSVKGRFTISRDNAKNTLYLQMNSLRAEDTALYYCARRNYDDTRGTDVFDIWGQGTMVTVSSGGGGSEVQLVETGGGLIQPGGSLRLSCAASGFTVSDNYMTWVRQAPGKGLEWVSVIFSGGNTYYADSVKGRFTISRDNAKNTLYLQMNSLRAEDTALYYCARRNYDDTRGTDVFDIWGQGTMVTVSSASEPKSSDKTHTCPPCPAPEAAGGPSVFLFPPKPKDTLMISRTPEVTCVVVDVSHEDPEVKFNWYVDGVEVHNAKTKPREEQYNSTYRVVSVLTVLHQDWLNGKEYKCKVSNKALPAPIEKTISKAKGQPREPQVCTLPPSREEMTKNQVSLSCAVKGFYPSDIAVEWESNGQPENNYKTTPPVLDSDGSFFLVSKLTVDKSRWQQGNVFSCSVMHEALHNHYTQKSLSLSPGK		
3.95	3570	16200		17600	PR002956 (bispecific antibody, human IgG1, lambda, L234A L235A) light: QAVVTQEPSLTVSPGGTVTLTCRSSTGAVTTSNYANWVQQKPGQAPRGLIGGTNKRAPWTPARFSGSLLGDKAALTLLGAQPEDEAEYFCALWYSNLWVFGGGTKLTVLGQPKAAPSVTLFPPSSEELQANKATLVCLISDFYPGAVTVAWKADSSPVKAGVETTTPSKQSNNKYAASSYLSLTPEQWKSHRSYSCQVTHEGSTVEKTVAPTECS heavy: not shown EVQLVETGGGLIQPGGSLRLSCAASGFTVSDNYMTWVRQAPGKGLEWVSVIFSGGNTYYADSVKGRFTISRDNAKNTLYLQMNSLRAEDTALYYCARRNYDDTRGTDVFDIWGQGTMVTVSSGSEVQLVETGGGLIQPGGSLRLSCAASGFTVSDNYMTWVRQAPGKGLEWVSVIFSGGNTYYADSVKGRFTISRDNAKNTLYLQMNSLRAEDTALYYCARRNYDDTRGTDVFDIWGQGTMVTVSSASEPKSSDKTHTCPPCPAPEAAGGPSVFLFPPKPKDTLMISRTPEVTCVVVDVSHEDPEVKFNWYVDGVEVHNAKTKPREEQYNSTYRVVSVLTVLHQDWLNGKEYKCKVSNKALPAPIEKTISKAKGQPREPQVCTLPPSREEMTKNQVSLSCAVKGFYPSDIAVEWESNGQPENNYKTTPPVLDSDGSFFLVSKLTVDKSRWQQGNVFSCSVMHEALHNHYTQKSLSLSPGK		
					Anti-4-1BB heavy-chain antibody 1016P0037D2, hIgG1 (antibody, V domains shown, HCAb (heavy chain dimer, no light chain), hIgG1 Fc; also called PR001840) VH: EVQLVESGGGLVQPGGSLRLSCAASGFTFSSYWMHWVRQAPGKGLVWVSRINSDGSSTSYADSVQGRFTISRDNAKNTLYLQMNSLRAEDTAVYYCVRKGSSSYYHYSIEDDWGQGTLVTVSS	0.43	1790
					Anti-4-1BB heavy-chain antibody 1016P0010B11, hIgG1 (antibody, V domains shown, HCAb (heavy chain dimer, no light chain), hIgG1 Fc; also called PR001758) VH: EVQLLESGGGLVQLGGSLRLSCAASGFTFSRYAMTWVRQAPEKGLEWVSSISGSGDDTYYGDSVKGRFTISRDNSQNTVYLQMNSLRAEDTAVYFCAKEKAGTTGDYYYNVDVWGQGTTVTVSS	0.212	1640
					Anti-4-1BB heavy-chain antibody 1016P0020G4, hIgG1 (antibody, V domains shown, HCAb (heavy chain dimer, no light chain), hIgG1 Fc; also called PR001836) VH: EVQLLESGGGLVQPGGSLRLSCAASGFIFSNFAMTWVRQPPEKGLKWVSSINGSGFNTYYTDSVKGRFTISRDNSRNTLYLQMNRLTAEDTAVYFCAKEGSSETDDHYYNVDVWGQGTTVTVSS	0.28	1830
					Anti-4-1BB heavy-chain antibody PR001838_G53A, hIgG1 (antibody, V domains shown, HCAb (heavy chain dimer, no light chain), hIgG1 Fc; also called PR004469) VH: EVQLLESGGGLVQPGGSLRLSCAASGFTFSNYAMSWFRQPPETGLKWVSSIDASGGDTYYADSVKGRFTISRDNSKNTLYLQMNSLRAEDTAVYYCAKEGSHGTDDSHYDVDVWGQGTTVTVSS	1.29	109000
					Anti-4-1BB heavy-chain antibody 1016P0042C5, hIgG1 (antibody, V domains shown, HCAb (heavy chain dimer, no light chain), hIgG1 Fc; also called PR001771) VH: EVQLLESGGGLVQPGGSLRLSCAASGFTFSNYAMTWVRQPPGKGLEWVSSISGSGGSTYYADSVKGRFTISRDNSKNTLYLQMNSLRAEDTAVYYCAKEGTGTTSDYYYNVDVWGQGTTVTVSS	0.532	1720

Source: US20230322953A1 (HARBOUR BIOMED SHANGHAI, published 2023)
